experiment: protease stability score; higher = more stable; yeast display proteolysis, trypsin and chymotrypsin;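 further: relative to predicted unfolded state with 0 unfolded-like and 1 meaning tenfold more protease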

Sequence | protease stability score
TEEEEHALTLMKEWVHNHETGNEDHLSHLMDPNYRWVQGDWHLHGMEDFSRELNKTLDKMGMTEHLRLKDFKVQGNFVEVIGTQHLHINGRTIKIDSTLKLNVINGRIHEVRYTLH | 0.77
SELDEDFRHMVELFAFHMLTGDEHEVHRLADPHYRYEQGDKNIIGRDEWIRFLREIRIHVNSIHIRRLDYVGDKIEADVHFDVLIHVNGVRIRHRHDSHLFWEKVDGRWVLHSVRVL | 1.36
DELDHEIRHVLHIIHHLLLTGDEEIFEEMADPDPRLDLVYGDKKIHVHGWKNILDMLKRLLDHWRIRHVEIKRITTQGNKAHLDTRSNLIINGRELIVIIELNVVTFNGVMKDMRIKIV | 1.65
NELHKEYRHMLHILRHIIETGNERALEENMDPNYRIEIGDKRIHGREKALEFWWRLNKRVDHLELHDEHINLFEGHVEIDGRLILKQGEYIEESKTTIFIVKVNGRWVLRSFRVE | 1.86
DDLETMFRRLFREWIERAETGDESRLRHLADPHYRSDQGDYDLHGREFAHEFLSRLWKELRFTIHIRHMYVYDGRVEVDGEIRVRINGRETTHKIRIEIVIVDGRIESEHIEIR | 1.26
HEEEEEFKHVVKEVKEFSETGDWDVLNELMDPHVRLFVNGRLHHGREQISEFWHKVKNVTLIIRHIRPVGEKLEVDGEMKFDGKNIEARIHAQKIDGRWITREYRII | 1.12
SDDEHAAHLIIFIWTFALITGDEQTLKELLDPNVKNEFNGVELHGREQVEEHVRRYDWVTDFKFRVDDIQHQGEKIILDGTLVITMEFDGRREDIKSRFILIVRKVDGKWHLERLIIV | 1.86
DEDTKLAQKMSKLLNHAIHTGDEKILRQLLDPHVRVHIGDKEHHGWKEYEKIMQEWRFEHVETEHVSLVNGRLHIDSHIVGNIDGRRTEVETHIIIKKFDGRWIDTEFHMK | 0.583
DEHEEEVREMHRVWVELLRTGDWRILAEMFDPNVRMHIGDKEHHGREAIEIHIEKFKNVRLEITRVHIQGEYIVIEGVINIDGKTHTLRFHFVLVNGRLKQYDEHSE | 2
SQEEEIVLHISQRLLRALSTGNEKEFEELLDPNARVSEIQGDKSYSHHGREEFLIFMREWFEKMGIKHFHIEHIDVQGNWVRVRGRITFNGREHDVNILILVIDGRVRSFTIEIK | 1.57
DQEERDSKHALRFMEHVISTGDEHLIEELLDPHARLDINGVDVHGREEVKRTITEHRKRYKNLRIHVTDLEVVNGVVRLHTELNIGDKRFEVRWFLDKIDGRWLMTEIRIR | 1.12
DEDSEVLSRILLHLTHHFSTGDFKEVTEMFDPHARAFVGDKELVGMELLRKFLHDLTKRLGVDHHDLRDDHIEIQGDKLRSEGKLRIDVNGREIKHHVHWILEKIDGRWVIREFRIV | 1.23
DDLEEEVEHFFELFWDDLLTGDEHSLTRQLDPHARFEYGDKVWHGREVYRQFMTQADHRHVEIKHTRVVNGRVEMNIEVRLHINGRRIESTVHIISTKINGQWRLESQHVE | -0.081
DEEEQSERIALELLDKSINTGDERVWKEMFDPRVIMDINGVKLIGREDYRRWRERFDHEENRDFKIHHHEVQGNKVHLDVEIDLTLNFDGKRHRHIFRTEVDVIKFDGKWHIRSLIVK | 1.18
DEREDEVRLATEHVERILQTGDEELFRHFVDPRVRMDYNGKDVHGREVILEWIVKIKNLTVRIDDVEVQGDKMLIRSHWTIGDKQHHLRIIATKINGRWESTSVHIH | 1.02
SEIREETQRVIEEFLRNHKTGDESLFHELADPNARLHFHQGDKRLDFIGREHVLEFWSRVSKELGVDHVELKDHKLQGDKMILHIESEVNGRRMIIIDISDKIDGRWVLHTLHIHVE | 0.466
DESRKAMRIALEIIEHMWRTGDETLRHELADPNTRVRIGDKELHGREELIRLWKELGFKHIEEIDLESIFVQGDKIHIDTRVHGEINGRHEVMRVVLIIHKIDGKWLIHSESHR | 1.49
SEIDRLSEELARLFLELVITGDFKTLSHLADPTVKSDINGVDLHGREELYRWVEEFYNELRVSWVLDSIEVQGEKAYVKGKLESRVDGQRHTDQYEIILIIVNGRFKEIIVKRR | 1.5

Sequence | protease stability score
DKELHIAYHLLKVFEHTLATGDEETSERLLDPDVRFWINGVDFHGWELFSTFMKHARFSFRDSRFHDNRLVNGQINLVGRVRLEIDVDGRRHHTETDVRVVILKVDGRWVIHSMEFK | 1.46
DELREDSERAEEWLITASETGNEEDILKLADPNTRIDINGKDLHGRESLEHFIRRYKGVTVRIRHRDIINGKLHLDTELRIDGVTLRTELIITKVNGRWYLEEQIVR | 1.07
SEEDKHLLHLMHLFLHWFDTGDEEQFWHYADPHVRMSVNGVHLHGRETVMRQISRTLKEWRVDDRRIHDSHTVNGVVHQDGRVDGEFNGKRDTREYYLIIVIFNGRIHSVEIHIK | 1.46
DEETRDLHHALRIVLHILRTGDFSHLFEYADPHVKIDINGKEVHGMEQMHHEIERLYFELGVDNVTVQHKRIIVYDGRVLVHMISHIGDKWRDIIIIFLKVNGRWRLHSIEVK | 1.72
DEEEELREESEKFEHRAWETGDWKLLAELMDPHTRFITEDHDFHGRENMEKLLEDDLRRIKNATIRSIIIRRTHEINGRLLLIGIVDVEIDGKRVIRDVKYIKVKINGRWYITTMQVR | 0.796
DEEERDMKIAEEVFLHAMHTGDWKKFFELMDPHVKVHIDGVDLHGREEASKIWKERIDKVKNMTFDVKHSHRQGNKVTLHTELHVNGKTTHLIVVLSKVNGRWTLEEMSEE | 1.21
DERMEVIEELLKKISHALYTGNEKLLEQMADPNVRLEIGDKEFVGWEQLLELIREIRLSITDIDIRDERLIGNKIHLRGESRTIHVIGDKTWEERRDVHFVILKIDGKWVMHEIEYR | 1.95
TEEDRFAHEFVRKWIENFLTGNEEKLHELADPNMKIDVGDKHLHGMEEWTRFLRDLGWRTEIRLRDIEVQGNKAFIRGEVHISINGRTDKTETRIILHVVNGRLKEVYVHHQ | 1.53
TELDKHLEDFAREFLHAFLTGDEDELRRLLDPNVKFEHDFDGVRFENHGMSALKEFWERVDVIDRFEIHEVRTQGDFIELVFHIDGWVNGRHKRTDSRILLVVINGKIKTIHVKIK | 2.15
SEEEESSHNAIKIWMETMETGNEELYLRLLDPHTRLDVNGKEFIGREVLKMFKKQIDHVKDVDVEHVEVQGDKVILNGRVRGDINGVERNTIEHLIVRKIDGRWRITEFSIR | 0.94
SEEEKHVHRFLSEWTRSLKTGDEQRIVRLLDPTARLFFEGREYHGMETIAHQIVHDIRHHGFTLEVEIQDFHVQGDKAEHDGILIVKVDGKEIHRKLILVVTKIDGRWFLSEVIIK | 0.923
SETEEAVKKVTHDLWHALLTGDEEIIRDLFDPHTKILINGVELHGMDEHKDFLDRFDHIHVHDRRIETVIVQGDKAISIGHIHVRFEYGDKHVSVHSEQRLIITKIDGKWIIRFVEIG | 1.22
DEEERAARFVLELIIRTFDTGDEHTIHELLDPHVRLWVGDKTFHGREQITHLIQRHLEELGFDHVHVHHRTIDVQGEKIELHGELELRQGDKRDTRTIKIIVQKVDGRWRITIFEIE | 1.48
DEERELLKRFIELWFHAIKTGDEDQLIRLLDPHVRIDINGVDIHGMEKYIHEHLRLERERGFEIRDFKIKHIEIQGEKAHVDTRLSGMVDGRHVDVRNRFIIYKFNGRWIFHSFHVD | 1.24
DEDEEEMEKMSREISEMLLTGDFDRLLELLDPNYRLRIGDKDLHGREEAKKHMHELFRHLGVDKFEVRLKQVELVDGVIWVHIEQRYDGRDFQIHVINKKIDGRWHVRRVEFE | 1.72
DDQDTNSELAVHLWILSMITGDERFLNEYMDPNAKVHVGDKEYHGREAYEFLRHRVDHIRESHIRRVHTQGNKVRVDVEFRIEVDGREINVRTELVLIKINGQWRFTEFTFK | 2.22
SELKQAIDDLIRRFEHIYHTGNEEIWERLADPNTRIDIDGQEIIGREQATRERREEMKKLGVERVEVELRLRNVEVVGNKLHLDGELILRYGDKTVVIDSKINLQKINGRWVIREEIYH | 1.04
DEVERWAKEIAELFLKLYLTGNWKNLERLLDPHMQFIIDGVRIHGREEMREFIRHEREFFKGMRHEITDSHVDVQGEKVEVHLHIEVIVNGQKHVRHINLHIEKIDGQWLIKLVIIHHE | 1.26
